Laboratory results: patent US20240294646A1
One block for each substance: values may come before it.

What was measured:
[1] = target: FcγRIIb, soluble extracellular domain (UniProt P31994); experiment: SPR, Protocol 2; the wild-type reference itself
[2] = target: FcγRIIaR, soluble extracellular domain (UniProt P12318); experiment: SPR, Protocol 2; the wild-type reference itself
[3] = target: FcγRIIb, soluble extracellular domain (UniProt P31994); experiment: SPR, Protocol 2; ratio of the fold on FcγRIIb to the fold on FcγRIIaR; the wild-type reference itself
[4] = target: FcγRIIb, soluble extracellular domain (UniProt P31994); experiment: SPR; IIb-Fold/IIaR-Fold (FcγRIIb against FcγRIIaR), vs. wild-type v16463
[5] = target: FcγRIIb, soluble extracellular domain (UniProt P31994); experiment: SPR; fold change in affinity over wild-type v16463
[6] = target: FcγRIIaR, soluble extracellular domain (UniProt P12318); experiment: SPR; fold change in affinity over wild-type v16463
[7] = target: FcγRIIb, soluble extracellular domain (UniProt P31994); experiment: SPR (General Methods Protocol 2): one-armed antibody captured on immobilised HER2, soluble receptor as analyte
[8] = target: FcγRIIaR, soluble extracellular domain (UniProt P12318); experiment: as above
[9] = target: FcγRIIb, soluble extracellular domain (UniProt P31994); experiment: SPR, Protocol 2; fold over wild-type v16463
[10] = target: FcγRIIaR, soluble extracellular domain (UniProt P12318); experiment: SPR, Protocol 2; fold over wild-type v16463
[11] = target: FcγRIIb, soluble extracellular domain (UniProt P31994); experiment: SPR, Protocol 2; ratio of the fold on FcγRIIb to the fold on FcγRIIaR
[12] = target: FcγRIIb (UniProt P31994); experiment: SPR (Protocol 2, Biacore 4000), antibody captured on immobilised HER2, FcγR as analyte
[13] = target: FcγRIIaR (UniProt P12318); experiment: as above
[14] = target: FcγRIIb (UniProt P31994); experiment: SPR (Protocol 2); selectivity for FcγRIIb against FcγRIIaR
[15] = target: FcγRIIb (UniProt P31994); experiment: SPR (Protocol 2), against wild-type 16463
[16] = target: Soluble FcγRIIaR extracellular domain with C-terminal 10xHis tag (UniProt P12318); experiment: SPR; fold change in affinity over WT v16463
[17] = target: Soluble FcγRIIb extracellular domain with C-terminal 10xHis tag (UniProt P31994); experiment: SPR; fold change in affinity over WT v16463
[18] = target: Soluble FcγRIIaR extracellular domain with C-terminal 10xHis tag (UniProt P12318); experiment: SPR; fold relative to control v27293
[19] = target: Soluble FcγRIIb extracellular domain with C-terminal 10xHis tag (UniProt P31994); experiment: SPR; fold relative to control v27293
[20] = target: Soluble FcγRIIb extracellular domain with C-terminal 10xHis tag (UniProt P31994); experiment: SPR; IIb-Fold / IIaR-Fold
[21] = target: Biotinylated FcγRIIb extracellular domain-Fc fusion (human IgG1 Fc with L234A_L235A_D265S) (human) (UniProt P31994); experiment: competition electrochemiluminescence, antibody on HER2-coated plate, biotinylated FcγRIIb-Fc; competitor FcγRIIaR-Fc at 10x
[22] = target: Soluble FcγRIIb extracellular domain with C-terminal 10xHis tag (UniProt P31994); experiment: SPR; selectivity relative to control v27293
[23] = target: Soluble FcγRIIaR extracellular domain with C-terminal 10xHis tag (UniProt P12318); experiment: SPR, antibody captured on immobilised HER2, soluble receptor as analyte
[24] = target: Soluble FcγRIIb extracellular domain with C-terminal 10xHis tag (UniProt P31994); experiment: as above
[25] = target: FcγRIIb (UniProt P31994); experiment: SPR, antibody captured on immobilised HER2, receptor as analyte; fold affinity over WT v16463
[26] = target: FcγRIIaR (UniProt P12318); experiment: as above
[27] = target: FcγRIIb (UniProt P31994); experiment: SPR; IIb-Fold divided by IIaR-Fold (FcγRIIb against FcγRIIaR)
[28] = target: FcγRIIb (UniProt P31994); experiment: SPR imaging (IBIS MX96), antibody spotted on chip, soluble receptor as analyte, kinetic fit, 25 C, pH 7.4
[29] = target: FcγRIIaR (UniProt P12318); experiment: as above
[30] = target: FcγRIIb (UniProt P31994); experiment: derived from the SPRi KDs for FcγRIIb and FcγRIIaR, relative to WT
[31] = target: FcγRIIb (UniProt P31994); experiment: SPR; IIb-Fold divided by IIaR-Fold, selectivity for FcγRIIb over FcγRIIaR relative to wild-type
[32] = target: FcγRIIb (UniProt P31994); experiment: SPR, antibody captured on HER2 chip, receptor as analyte; fold change in affinity over wild-type
[33] = target: FcγRIIIaF (UniProt P08637); experiment: as above
[34] = target: FcγRIIaR (UniProt P12318); experiment: as above
[35] = target: FcγRIa (UniProt P12314); experiment: as above
[36] = target: FcγRIIaH (UniProt P12318); experiment: as above
[37] = target: Biotinylated FcγRIIb extracellular domain-Fc fusion (human IgG1 Fc with L234A_L235A_D265S) (human) (UniProt P31994); experiment: competition electrochemiluminescence assay; antibody on HER2, biotinylated FcγRIIb-Fc, competitor FcγRIIaR-Fc
[38] = target: Soluble FcγRIIb extracellular domain with C-terminal 10×His tag (UniProt P31994); experiment: SPR; ratio of IIb-Fold to IIaR-Fold (FcγRIIb against FcγRIIaR)
[39] = target: Soluble FcγRIIaR extracellular domain with C-terminal 10×His tag (UniProt P12318); experiment: SPR; KD ratio against wild-type v16463
[40] = target: Soluble FcγRIIb extracellular domain with C-terminal 10×His tag (UniProt P31994); experiment: SPR; KD ratio against wild-type v16463
[41] = target: Soluble FcγRIIaR extracellular domain with C-terminal 10×His tag (UniProt P12318); experiment: SPR, antibody captured on HER2 chip, receptor as analyte
[42] = target: Soluble FcγRIIb extracellular domain with C-terminal 10×His tag (UniProt P31994); experiment: as above
[43] = target: Soluble FcγRIIb extracellular domain with C-terminal 10xHis tag (UniProt P31994); experiment: SPR; IIb-Fold/IIaR-Fold (FcγRIIb against FcγRIIaR)
[44] = target: Biotinylated FcγRIIb extracellular domain-Fc fusion (human IgG1 Fc with L234A_L235A_D265S) (human) (UniProt P31994); experiment: competition electrochemiluminescence (MSD), antibody on coated HER2, biotinylated FcγRIIb-Fc with FcγRIIaR-Fc as competitor
[45] = target: Soluble FcγRIIaR extracellular domain with C-terminal 10xHis tag (UniProt P12318); experiment: SPR; fold change in affinity over wild-type v16463
[46] = target: Soluble FcγRIIb extracellular domain with C-terminal 10xHis tag (UniProt P31994); experiment: SPR; fold change in affinity over wild-type v16463
[47] = target: Soluble FcγRIIaR extracellular domain with C-terminal 10xHis tag (UniProt P12318); experiment: SPR (Biacore 4000), antibody captured on immobilised HER2, receptor as analyte
[48] = target: Soluble FcγRIIb extracellular domain with C-terminal 10xHis tag (UniProt P31994); experiment: as above
[49] = target: Soluble FcγRIIaR extracellular domain with C-terminal 10xHis tag (UniProt P12318); experiment: SPR; fold affinity relative to control v27293
[50] = target: Soluble FcγRIIb extracellular domain with C-terminal 10xHis tag (UniProt P31994); experiment: SPR; fold affinity relative to control v27293
[51] = target: Soluble FcγRIIaR extracellular domain with C-terminal 10xHis tag (UniProt P12318); experiment: SPR; KD of WT v16463 / KD of variant
[52] = target: Soluble FcγRIIb extracellular domain with C-terminal 10xHis tag (UniProt P31994); experiment: SPR; KD of WT v16463 / KD of variant
[53] = target: Soluble FcγRIIaR extracellular domain with C-terminal 10xHis tag (UniProt P12318); experiment: SPR (Biacore 4000); variant captured on HER2, receptor in solution
[54] = target: Soluble FcγRIIb extracellular domain with C-terminal 10xHis tag (UniProt P31994); experiment: as above
[55] = target: Soluble FcγRIIb extracellular domain with C-terminal 10xHis tag (UniProt P31994); experiment: SPR; IIb selectivity relative to control v27293
[56] = target: Soluble FcγRIIb extracellular domain with C-terminal 10xHis tag (UniProt P31994); experiment: SPR; IIb-Fold / IIaR-Fold (FcγRIIb against FcγRIIaR)

Substance: Variant 16463, wild-type control one-armed trastuzumab antibody with heterodimeric IgG1 Fc
IIb-fold (fold change in affinity over wild-type) [1]: 1 fold | IIaR-fold (fold change in affinity over wild-type) [2]: 1 fold | IIb/IIaR Selectivity (IIb-Fold/IIaR-Fold) [3]: 1

Substance: Variant 16463, wild-type one-armed trastuzumab antibody (OAA) with heterodimeric IgG1 Fc
IIb/IIaR Selectivity vs. WT [4]: 1 fold | IIb-Fold vs. WT [5]: 1 fold | IIaR-Fold vs. WT [6]: 1 fold | Kd [7]: 1400 nM | Kd [8]: 310 nM

Substance: Variant 18370 (S239D), one-armed trastuzumab antibody with heterodimeric IgG1 Fc
IIb-fold (fold change in affinity over wild-type) [9]: 4.39 fold | IIaR-fold (fold change in affinity over wild-type) [10]: 3.8 fold | IIb/IIaR Selectivity (IIb-Fold/IIaR-Fold) [11]: 1.2

Substance: Variant 27362, Strat 3 control (A_G236N_G237A / B_G236D_G237F_S239D_S267V_H268D) (antibody)
IIb-Fold [25]: 9 fold | IIaR-fold [26]: 1 fold | IIb Selectivity [27]: 9 fold

Substance: v12 (OAA), IIb-specific comparator, trastuzumab one-armed antibody with symmetrical E233D_G237D_P238D_H268D_P271G_A330R
IIb/IIaR Selectivity (ratio (IIb-Fold/IIaR-Fold)) [31]: 82.9 | FcγR Binding (Fold Change over WT) [32]: 112 fold over WT | FcγR Binding (Fold Change over WT) [33]: 0.1 fold over WT | FcγR Binding (Fold Change over WT) [34]: 1.4 fold over WT | FcγR Binding (Fold Change over WT) [35]: 0 fold over WT | FcγR Binding (Fold Change over WT) [36]: 0.1 fold over WT

Substance: v12, IIb-specific comparator with symmetrical E233D_G237D_P238D_H268D_P271G_A330R (Mimoto et al. 2013), trastuzumab antibody
ELISA (% of non-competed FcγRIIb signal in presence of 10x FcγRIIa) [37]: 100% | IIb Selectivity (IIb-Fold/IIaR-Fold) [38]: 80.5 fold | IIaR-fold [39]: 1.4 fold | IIb-Fold [40]: 112 fold | Kd [41]: 220 nM | Kd [42]: 13 nM

Substance: v26133 (A_N236I_strat1), one-armed trastuzumab antibody
IIaR-Fold wrt Control [49]: 1.1 fold | IIb-Fold wrt Control [50]: 1.4 fold | IIaR-fold [51]: 37.3 fold | IIb-Fold [52]: 585 fold | Kd [53]: 8.3 nM | Kd [54]: 2.5 nM | IIb Selectivity Fold wrt Control [55]: 1.3 fold | IIb Selectivity [56]: 15.7 fold

Other lines, results leading:

Kd [12]: 39 nM | Kd [13]: 17 nM | IIb/IIaR Selectivity [14]: 1.4 | IIb-Fold (fold change in affinity over wild-type) (fold over wild-type) [15]: 29.3
Substance: Variant 18372, control without loop replacement (chain B S239D_H268D), one-armed antibody Scaffold 2

IIaR-fold [16]: 35.2 fold | IIb-Fold [17]: 415 fold | IIaR-Fold wrt Control [18]: 1 fold | IIb-Fold wrt Control [19]: 1 fold | IIb Selectivity [20]: 11.8 | ELISA (% of non-competed FcγRIIb signal in presence of 10x FcγRIIa) [21]: 70.8% | IIb Selectivity Fold wrt Control [22]: 1 fold | Kd [23]: 8.8 nM | Kd [24]: 3.5 nM
Substance: Variant 27293, Launching Module 1 (A_G236N_G237A / B_G236D_G237F_S239D_S267V_H268D_Template_1), one-armed trastuzumab antibody

Kd [28]: 13 nM | Kd [29]: 460 nM | IIb Selectivity (IIb-Fold/IIaR-Fold) [30]: 106 fold
Substance: v12 (IIb-specific comparator, symmetrical E233D_G237D_P238D_H268D_P271G_A330R), anti-CD19 (4G7) full-size antibody

IIb Selectivity [43]: 80.5 fold | ELISA (% of non-competed FcγRIIb signal in presence of 10x FcγRIIa) [44]: 100% | IIaR-fold [45]: 1.4 fold | IIb-Fold [46]: 112 fold | Kd [47]: 220 nM | Kd [48]: 13 nM
Substance: v12, symmetrical E233D_G237D_P238D_H268D_P271G_A330R (IIb-specific comparator) (antibody)
